Assays:
[1] = biological target: T1, human CD19 (human, UniProt P15391 20-556); test: flow cytometry, HIS-tagged scFv bacterial supernatant on CD19-transfected HEK293 cells (FIG. 8A)
T1 sequence: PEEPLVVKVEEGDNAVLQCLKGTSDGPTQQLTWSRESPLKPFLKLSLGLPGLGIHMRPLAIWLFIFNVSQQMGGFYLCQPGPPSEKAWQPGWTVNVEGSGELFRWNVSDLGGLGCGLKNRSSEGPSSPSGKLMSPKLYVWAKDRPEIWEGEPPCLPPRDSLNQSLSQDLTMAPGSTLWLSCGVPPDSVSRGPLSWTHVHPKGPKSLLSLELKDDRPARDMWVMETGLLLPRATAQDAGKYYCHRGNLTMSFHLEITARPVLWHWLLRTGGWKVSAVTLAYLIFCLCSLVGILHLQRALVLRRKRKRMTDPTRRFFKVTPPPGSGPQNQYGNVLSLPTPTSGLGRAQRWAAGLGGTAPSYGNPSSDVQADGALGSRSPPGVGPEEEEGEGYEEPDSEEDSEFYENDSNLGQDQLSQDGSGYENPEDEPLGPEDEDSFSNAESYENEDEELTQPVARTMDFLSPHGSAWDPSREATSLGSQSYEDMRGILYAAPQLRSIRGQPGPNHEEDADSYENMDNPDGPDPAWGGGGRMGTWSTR
From the text: (§1) A third scFv library was generated by shuffling the VH sequences from the selection in (a) with the VL sequences resulting from the selection in (b). […] Binding by the selected scFv clones to CD19-expressing cells was confirmed by flow cytometry using bacterially-produced supernatant. The selected scFv pools were cloned into E. coli expression vectors and produced as HIS-tagged scFvs. Binding of individual clones to CD19-transfected HEK293 cells was detected with anti-HIS-Alexa647 conjugate by flow cytometry.

[2] = biological target: T1, human CD19; test: flow cytometry on CD19-expressing cells (n = 4)
[3] = biological target: T1, human CD19; test: flow cytometry competition for binding with FMC63 (n = 3)
[4] = biological target: T1, human CD19; test: flow cytometry, HIS-tagged scFv bacterial supernatant on CD19-transfected HEK293 cells (FIG. 8B)
From the text: as §1

[5] = biological target: T1, human CD19; test: flow cytometry, scFv titrated on CD19-expressing K562 cells (FIG. 3A)
[6] = biological target: T1, human CD19; test: flow cytometry, scFv titrated on CD19-expressing K562 cells (FIG. 4, another plate)
[7] = biological target: T1, human CD19; test: flow cytometry on CD19-expressing cells (n = 3)
[8] = biological target: T1, human CD19; test: flow cytometry competition for binding with FMC63 (n = 1)
[9] = biological target: T1, human CD19; test: flow cytometry on CD19-expressing cells (n = 1)
From the text: Various clones were titrated and their binding affinity (EC50) to various CD19-expressing cells assessed by flow cytometry.

[10] = biological target: T1, human CD19; test: flow cytometry, scFv titrated on CD19-expressing K562 cells (FIG. 4, one plate)
[11] = biological target: T1, human CD19; test: flow cytometry competition for binding with FMC63 (n = 2)

B1: Clone 272 scFv (scFv)
scFv: EVQLVESGGGLVQPGRSLRLSCAASGFTFDDYAMHWVRQAPGKGLEWVSGISWNSGRIGYADSVKGRFTISRDNAKNSLFLQMNSLRAEDTAVYYCARDQGYHYYDSAEHAFDIWGQGTVVTVSSGGGGSGGGGSGGGGSQSVLTQPPSVSAAPGQKVTISCSGSSSNIGNNYVSWYQQLPGTAPKLLIYDNNKRPSGIPDRFSGSKSGTSATLGITGLQTGDEADYYCGTWDSSLNRDWVFGGGTKLTVL
notes: HIS- or FLAG-tagged
**Q.** Does B1 bind [1]?
**A.** binds

B2: Clone 285 scFv (scFv)
scFv: EVQLVESGGGLVQPGRSLRLSCAASGFTFDDYAMHWVRQAPGKGLEWVSGISWNSGRIGYADSVKGRFTISRDNAKNSLFLQMNSLRAEDTAVYYCARDQGYHYYDSAEHAFDIWGQGTVVTVSSGGGGSGGGGSGGGGSQSALTQPASVSGSPGQSITISCTGTSSDLGGYNYVSWYQHRPGKAPKLIIYDVTVRPSGVSDRFSGSKSGNTASLTISGLQAEDEADYYCGSYTSSSTLLWVFGGGTKLTVL
notes: Human scFv
**Q.** How did the EC50 [2] turn out when B2 was run?
**A.** 2.5 nM

**Q.** And the IC50 [3]?
**A.** 9.4 nM

B3: Clone 283 scFv (scFv)
scFv: QVQLVESGGGLVQPGRSLRLSCAASGFTFDDYAMHWVRQAPGKGLEWVSGISWNSGRIGYADSVKGRFTISRDNAKNSLFLQMNSLRAEDTAVYYCARDQGYHYYDSAEHAFDIWGQGTVVTVSSGGGGSGGGGSGGGGSQSALTQPASVSGSPGQSITISCTGTSSDLGGYNYVSWYQHRPGKAPKLIIYDVTVRPSGVSDRFSGSKSGNTASLTISGLQAEDEADYYCGSYTSSSTLLWVFGGGTKLTVL
notes: HIS- or FLAG-tagged
**Q.** Does B3 bind [1]?
**A.** binds

B4: Clone 302 scFv (scFv)
scFv: QVQLVESGGGLVQPGRSLRLSCAASGFTFDDYAMHWVRQAPGKGLEWVSGISWNSGRIGYADSVKGRFTISRDNAKNSLFLQMNSLRAEDTAVYYCARDQGYHYYDSAEHAFDIWGQGTVVTVSSGGGGSGGGGSGGGGSQSALTQPASVSGSPGQSITISCTGTSSDLGGYNYVSWYQHRPGKAPKLIIYDVTVRPSGVSDRFSGSKSGNTASLTISGLQAEDEADYYCGSYTSSSTLLWVFGGGTKLTVL
notes: HIS- or FLAG-tagged
**Q.** Does B4 bind [4]?
**A.** binds

B5: Clone 336 scFv (scFv)
scFv: QVQLVESGGGLVQPGRSLRLSCAASGFTFDDYAMHWVRQAPGKGLEWVSGISWNSGRIGYADSVKGRFTISRDNAKNSLFLQMNSLRAEDTAVYYCARDQGYHYYDSAEHAFDIWGQGTVVTVSSGGGGSGGGGSGGGGSQSALTQPASVSGSPGQSITISCTGTSSDLGGYNYVSWYQHRPGKAPKLIIYDVTVRPSGVSDRFSGSKSGNTASLTISGLQAEDEADYYCGSYTSSSTLLWVFGGGTKLTVL
notes: HIS- or FLAG-tagged
**Q.** Does B5 bind [4]?
**A.** binds

B6: Clone 192 scFv (scFv)
scFv: EVQLVESGGGLVQPGRSLRLSCAASGFTFDDYAMHWVRQAPGKGLEWVSGISWNSGRIGYADSVKGRFTISRDNAKNSLFLQMNSLRAEDTAVYYCARDQGYHYYDSAEHAFDIWGQGTMVTVSSGGGGSGGGGSGGGGSQAVLTQPRSVSGSPGQSVTISCTGISSGVDSHRYVSWYQHHPGKAPKLMIYDFSKRPSGVPDRFSGSKSGNTASLTISGLQAEDEADYYCCSYAAISPNYVFGTGTKLTVL
notes: Human scFv
**Q.** How did the EC50 [5] turn out when B6 was run?
**A.** 12.8 nM

**Q.** What about the EC50 [6] of the same binder?
**A.** 12 nM

B7: Clone 192B scFv (scFv)
scFv: QVQLVESGGGLVQPGRSLRLSCAASGFTFDDYAMHWVRQAPGKGLEWVSGISWNSGRIGYADSVKGRFTISRDNAKNSLFLQMNSLRAEDTAVYYCARDQGYHYYDSAEHAFDIWGQGTMVTVSSGGGGSGGGGSGGGGSQAVLTQPRSVSGSPGQSVTISCTGISSGVDSHRYVSWYQHHPGKAPKLMIYDFSKRPSGVPDRFSGSKSGNTASLTISGLQAEDEADYYCSSYAAISPNYVFGTGTKLTVL
notes: Human scFv
**Q.** B7 was tested. Which IC50 [3] did it give?
**A.** 15.7 nM

**Q.** What about the EC50 [7] of the same binder?
**A.** 7.7 nM

B8: Clone 328 scFv (scFv)
scFv: QVQLVESGGGLVQPGRSLRLSCAASGFTFDDYAMHWVRQAPGKGLEWVSGISWNSGRIGYADSVKGRFTISRDNAKNSLFLQMNSLRAEDTAVYYCARDQGYHYYDSAEHAFDIWGQGTVVTVSSGGGGSGGGGSGGGGSQSALTQPASVSGSPGHSITISCTGTRSDVGGFDYVSWYQHNPGKAPKLIIYDVTKRPSGVSNRFSGAKSGITASLTISGLQAEDEADYYCTSYRPGPTFVFGTGTKLTVL
notes: Human scFv
**Q.** What does the source list for B8?
**A.** IC50 [8]: 32.9 nM; EC50 [2]: 10.9 nM

B9: Clone 1 scFv (scFv)
scFv: EVQLVESGGGLVQPGRSLRLSCAASGFTFDDYAMHWVRQAPGKGLEWVSGISWNSGRIGYADSVKGRFTISRDNAKNSLFLQMNSLRAEDTAVYYCARDQGYHYYDSAEHAFDIWGQGTMVTVSSGGGGSGGGGSGGGGSQSALTQPASVSGSPGQSITISCTGTSSDVGAYNFVSWYQQLPGTAPKFLIYDNNKRPPGIPDRFSGSKSGTSATLGITGLQTGDEADYYCATWDSGLSAVVFGGGTKLTVL
notes: Human scFv
**Q.** How did the EC50 [9] turn out when B9 was run?
**A.** 214 nM

**Q.** What about the EC50 [10] of the same binder?
**A.** 214 nM

B10: Clone 184 scFv (scFv, V domains shown)
VH: QVQLVESGGGLVQPGRSLRLSCAASGFTFDDYAMHWVRQAPGKGLEWVSGISWNSGRIGYADSVKGRFTISRDNAKNSLFLQMNSLRAEDTAVYYCARDQGYHYYDSAEHAFDIWGQGTMVTVSS
**Q.** Which EC50 [9] does the source give for B10 here?
**A.** 114 nM

**Q.** And the EC50 [6]?
**A.** 114 nM

B11: Clone 79 scFv (scFv)
scFv: EVQLVESGGGLVQPGRSLRLSCAASGFTFDDYAMHWVRQAPGKGLEWVSGISWNSGRIGYADSVKGRFTISRDNAKNSLFLQMNSLRAEDTAVYYCARDQGYHYYDSAEHAFDIWGQGTVVTVSSGGGGSGGGGSGGGGSQSVLTQPPSVSAAPGQKVTISCSGSSSNIGNNYVSWYQQLPGTAPKLLIYDNNKRPSGIPDRFSGSKSGTSATLGITGLQTGDEGDYYCGTWDISLRFGVFGGGTKVTVL
notes: Human scFv
**Q.** With B11 as the binder, how does the EC50 [9] read?
**A.** 65.7 nM

**Q.** And the IC50 [8]?
**A.** 102 nM

B12: Clone 505 scFv (scFv)
scFv: EVQLVESGGGLVQPGRSLRLSCAASGFTFDDYAMHWVRQAPGKGLEWVSGISWNSGRIGYADSVKGRFTISRDNAKNSLFLQMNSLRAEDTAVYYCARDQGYHYYDSAEHAFDIWGQGTMVTVSSQSVLTQPRSLSGSPGQSVTIACTGASTDVGGYNYVSWYQQHPGKAPKLMIYDVNKRPSGVPDRFSGSKSGNTAFLTISGLQAEDEADYYCCSYAGSYTFEVFGGGTKLTVL
**Q.** How did the EC50 [9] turn out when B12 was run?
**A.** 139 nM

B13: Clone 506 scFv (scFv)
scFv: EVQLVESGGGLVQPGRSLRLSCAASGFTFDDYAMHWVRQAPGKGLEWVSGISWNSGRIGYADSVKGRFTISRDNAKNSLFLQMNSLRAEDTAVYYCARDQGYHYYDSAEHAFDIWGQGTMVTVSSGGGGSGGGGSGGGGSQLVLTQPPSVSGSPGQSVTFSCTGASSDVGGYDHVSWYQHHPGKGPKLLIYDVSKRPSGVPDRFSGSKSGNTASLTISGLQAEDEADYYCCSFAGYYTYWLFGGGTKVTVL
notes: Human scFv
**Q.** How did the EC50 [9] turn out when B13 was run?
**A.** 179 nM

B14: Clone 1300 scFv (scFv)
scFv: QMQLVQSGGGLVQPGRSLRLSCAASGFTFDDYAMHWVRQAPGKGLEWVSGISWNSGSIGYADSVKGRFTISRDNAKNSLYLQMNSLRAEDTAVYYCARDQGYHYYDSAEHAFDIWGQGTVVTVSSGGGGSGGGGSGGGGSAIRMTQSPSTLSASVGDRVTITCRASQSISHYLAWYQQKPGKAPKLLIFDASRLASGVPSRFSGSGSGTDFTLTISSLQPEDFATYYCQQSYGAPMFTFGPGTRVDLK
notes: Human scFv
**Q.** Which results are given for B14?
**A.** EC50 [7]: 1.3 nM; IC50 [11]: 3.9 nM

B15: Clone 227 scFv (scFv)
scFv: EVQLVQSGGGLVQPGRSLRLSCAASGFTFDDYAMHWVRQAPGKGLEWVSGISWNSGSIGYADSVKGRFTISRDNAKNSLYLQMNSLRAEDTAVYYCARDQGYHYYDSAEHAFDIWGQGTVVTVSSGGGGSGGGGSGGGGSDIQLTQSPSTLSASVGDRVTITCRASQSISRWLAWYQQKPGKAPKLLIYDASNLETGVPSRFSGSGSGTDFTFTISSLQPEDIATYYCQQYDNLPLTFGGGTKVEIK
notes: Human scFv
**Q.** B15 was tested. Which EC50 [7] did it give?
**A.** 31.8 nM

**Q.** What about the IC50 [11] of the same binder?
**A.** 56.1 nM

Source: patent US20240018256A1 (JUNO THERAPEUTICS, published 2024)
